Source: patent publication US20150344570A1 (published 2015)

T1: FcγRIIa R (FcγRIIa, allotype with Arg at position 131), extracellular domain with C-terminal His tag (human, UniProt P12318 34-217)
T1 construct: extracellular domain; also called FcγRIIa R type; 2aR
T1 sequence (looked up): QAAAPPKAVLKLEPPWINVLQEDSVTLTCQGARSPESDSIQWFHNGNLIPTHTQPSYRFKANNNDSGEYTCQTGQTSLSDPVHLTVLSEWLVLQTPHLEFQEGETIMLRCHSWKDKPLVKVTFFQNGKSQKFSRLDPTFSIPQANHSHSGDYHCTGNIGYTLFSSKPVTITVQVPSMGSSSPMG

T2: FcγRIIb extracellular domain with C-terminal His tag (human, UniProt P31994 43-217)
T2 construct: extracellular domain; also called FcgRIIb; 2b
T2 sequence (looked up): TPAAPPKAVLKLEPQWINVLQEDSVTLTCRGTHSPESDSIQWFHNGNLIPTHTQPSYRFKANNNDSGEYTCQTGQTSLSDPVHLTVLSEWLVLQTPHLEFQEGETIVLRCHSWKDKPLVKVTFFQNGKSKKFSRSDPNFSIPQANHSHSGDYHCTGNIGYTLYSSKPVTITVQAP


What was measured:
[1] = target: T1, FcγRIIa R (FcγRIIa, allotype with Arg …); test: SPR (Biacore), antibody captured on antigen peptide chip, FcγR as analyte; relative binding
Experimental: Analysis of interaction between objective antibody and the FcγR was carried out using Biacore T100 (GE Healthcare). HBS-EP+ (GE Healthcare) was used as the running buffer, and the measurement temperature was set to 25° C. Chips produced by immobilizing the antigen peptide by the amine coupling method to a Series S Sencor Chip CM5 (GE Healthcare), or alternatively, chips produced by allowing preliminarily biotinylated antigen peptides to interact with and immobilize onto a Series S Sensor Chip SA (certified) (GE Healthcare) were used. Antibodies of interest were captured onto an antigen peptide-immobilized chip, and allowed to interact to each FcγR diluted with running buffer. To regenerate and repeatedly use the chip, the antibodies captured on the chip were washed off by reacting 10 mM glycine-HCl, pH 1.5.

[2] = target: T2, FcγRIIb extracellular domain with …; test: SPR (Biacore), relative binding

Binder	Ho/Con_2aR [1]	He/Con_2b [2]
GpH7-B3 variant S337_02A/GpL16-k0 (antibody, human IgG1, kappa, also called Ho Ab) heavy: not shown light: DIVMTQSPLSLPVTPGEPASISCQASESLVHSNRNTYLHWYLQKPGQSPQLLIYKVSNRFSGVPDRFSGSGSGTDFTLKISRVEAEDVGVYYCSQNTHVPPTFGQGTKVEIERTVAAPSVFIFPPSDEQLKSGTASVVCLLNNFYPREAKVQWKVDNALQSGNSQESVTEQDSKDSTYSLSSTLTLSKADYEKHKVYACEVTHQGLSSPVTKSFNRGEC	102 % of GpH7-B3/GpL16-k0 (=100)	–
GpH7-A5/GpH7-B3 variant T335_07I/GpL16-k0 (antibody, human IgG1, kappa, also called He Ab T335_07I) heavy 1: not shown heavy 2: not shown light: DIVMTQSPLSLPVTPGEPASISCQASESLVHSNRNTYLHWYLQKPGQSPQLLIYKVSNRFSGVPDRFSGSGSGTDFTLKISRVEAEDVGVYYCSQNTHVPPTFGQGTKVEIERTVAAPSVFIFPPSDEQLKSGTASVVCLLNNFYPREAKVQWKVDNALQSGNSQESVTEQDSKDSTYSLSSTLTLSKADYEKHKVYACEVTHQGLSSPVTKSFNRGEC	–	106 % of HeCon Ab GpH7-A5/GpH7-B3/GpL16-k0
GpH7-B3 variant P331_09D/GpL16-k0 (antibody, human IgG1, kappa, also called Ho Ab) heavy: not shown light: DIVMTQSPLSLPVTPGEPASISCQASESLVHSNRNTYLHWYLQKPGQSPQLLIYKVSNRFSGVPDRFSGSGSGTDFTLKISRVEAEDVGVYYCSQNTHVPPTFGQGTKVEIERTVAAPSVFIFPPSDEQLKSGTASVVCLLNNFYPREAKVQWKVDNALQSGNSQESVTEQDSKDSTYSLSSTLTLSKADYEKHKVYACEVTHQGLSSPVTKSFNRGEC	88.8 % of GpH7-B3/GpL16-k0 (=100)	–
GpH7-A5/GpH7-B3 variant V266_06M/GpL16-k0 (antibody, human IgG1, kappa, also called He Ab V266_06M) heavy 1: not shown heavy 2: not shown light: DIVMTQSPLSLPVTPGEPASISCQASESLVHSNRNTYLHWYLQKPGQSPQLLIYKVSNRFSGVPDRFSGSGSGTDFTLKISRVEAEDVGVYYCSQNTHVPPTFGQGTKVEIERTVAAPSVFIFPPSDEQLKSGTASVVCLLNNFYPREAKVQWKVDNALQSGNSQESVTEQDSKDSTYSLSSTLTLSKADYEKHKVYACEVTHQGLSSPVTKSFNRGEC	–	251 % of HeCon Ab GpH7-A5/GpH7-B3/GpL16-k0
GpH7-A5/GpH7-B3 variant S337_20W/GpL16-k0 (antibody, human IgG1, kappa, also called He Ab S337_20W) heavy 1: not shown heavy 2: not shown light: DIVMTQSPLSLPVTPGEPASISCQASESLVHSNRNTYLHWYLQKPGQSPQLLIYKVSNRFSGVPDRFSGSGSGTDFTLKISRVEAEDVGVYYCSQNTHVPPTFGQGTKVEIERTVAAPSVFIFPPSDEQLKSGTASVVCLLNNFYPREAKVQWKVDNALQSGNSQESVTEQDSKDSTYSLSSTLTLSKADYEKHKVYACEVTHQGLSSPVTKSFNRGEC	–	109 % of HeCon Ab GpH7-A5/GpH7-B3/GpL16-k0
GpH7-B3 variant P331_06M/GpL16-k0 (antibody, human IgG1, kappa, also called Ho Ab) heavy: not shown light: DIVMTQSPLSLPVTPGEPASISCQASESLVHSNRNTYLHWYLQKPGQSPQLLIYKVSNRFSGVPDRFSGSGSGTDFTLKISRVEAEDVGVYYCSQNTHVPPTFGQGTKVEIERTVAAPSVFIFPPSDEQLKSGTASVVCLLNNFYPREAKVQWKVDNALQSGNSQESVTEQDSKDSTYSLSSTLTLSKADYEKHKVYACEVTHQGLSSPVTKSFNRGEC	79.8 % of GpH7-B3/GpL16-k0 (=100)	–
GpH7-B3 variant P331_07I/GpL16-k0 (antibody, human IgG1, kappa, also called Ho Ab) heavy: not shown light: DIVMTQSPLSLPVTPGEPASISCQASESLVHSNRNTYLHWYLQKPGQSPQLLIYKVSNRFSGVPDRFSGSGSGTDFTLKISRVEAEDVGVYYCSQNTHVPPTFGQGTKVEIERTVAAPSVFIFPPSDEQLKSGTASVVCLLNNFYPREAKVQWKVDNALQSGNSQESVTEQDSKDSTYSLSSTLTLSKADYEKHKVYACEVTHQGLSSPVTKSFNRGEC	67 % of GpH7-B3/GpL16-k0 (=100)	–
GpH7-A5/GpH7-B3 variant S337_15Y/GpL16-k0 (antibody, human IgG1, kappa, also called He Ab S337_15Y) heavy 1: not shown heavy 2: not shown light: DIVMTQSPLSLPVTPGEPASISCQASESLVHSNRNTYLHWYLQKPGQSPQLLIYKVSNRFSGVPDRFSGSGSGTDFTLKISRVEAEDVGVYYCSQNTHVPPTFGQGTKVEIERTVAAPSVFIFPPSDEQLKSGTASVVCLLNNFYPREAKVQWKVDNALQSGNSQESVTEQDSKDSTYSLSSTLTLSKADYEKHKVYACEVTHQGLSSPVTKSFNRGEC	–	100 % of HeCon Ab GpH7-A5/GpH7-B3/GpL16-k0
GpH7-A5/GpH7-B3 variant S337_18N/GpL16-k0 (antibody, human IgG1, kappa, also called He Ab S337_18N) heavy 1: not shown heavy 2: not shown light: DIVMTQSPLSLPVTPGEPASISCQASESLVHSNRNTYLHWYLQKPGQSPQLLIYKVSNRFSGVPDRFSGSGSGTDFTLKISRVEAEDVGVYYCSQNTHVPPTFGQGTKVEIERTVAAPSVFIFPPSDEQLKSGTASVVCLLNNFYPREAKVQWKVDNALQSGNSQESVTEQDSKDSTYSLSSTLTLSKADYEKHKVYACEVTHQGLSSPVTKSFNRGEC	–	103 % of HeCon Ab GpH7-A5/GpH7-B3/GpL16-k0
GpH7-A5/GpH7-B3 variant T335_15Y/GpL16-k0 (antibody, human IgG1, kappa, also called He Ab T335_15Y) heavy 1: not shown heavy 2: not shown light: DIVMTQSPLSLPVTPGEPASISCQASESLVHSNRNTYLHWYLQKPGQSPQLLIYKVSNRFSGVPDRFSGSGSGTDFTLKISRVEAEDVGVYYCSQNTHVPPTFGQGTKVEIERTVAAPSVFIFPPSDEQLKSGTASVVCLLNNFYPREAKVQWKVDNALQSGNSQESVTEQDSKDSTYSLSSTLTLSKADYEKHKVYACEVTHQGLSSPVTKSFNRGEC	–	108 % of HeCon Ab GpH7-A5/GpH7-B3/GpL16-k0
